According to publication PMC1865072 (Nucleic Acids Research, 2007):
Read-outs that look alike come from different tables or passages of the source.

What was measured:
Experiment in all cases: native MS
[1] = target: 15N-labelled Kis antitoxin (Killing suppressor) of the parD operon of plasmid R1 (Escherichia coli (plasmid R1))
[2] = target: 15N-labelled Kis antitoxin (Killing suppressor) of the parD operon of plasmid R1 (Escherichia coli (plasmid R1)); remark: listed apart in the source
native MS = target: the molecule itself

15N-labelled Kis antitoxin (Killing suppressor) of the parD operon of plasmid R1 (Escherichia coli (plasmid R1)), sequence (P13975 whole entry): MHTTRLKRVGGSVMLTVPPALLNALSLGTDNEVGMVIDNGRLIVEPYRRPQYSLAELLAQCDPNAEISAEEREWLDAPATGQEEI

Molecule: 15N-labelled Kis antitoxin (Killing suppressor) of the parD operon of plasmid R1 (natural protein)
- stoichiometry N (subunits in the oligomer) [1]: 2

Molecule: Kid toxin (Killing determinant) of the parD operon of plasmid R1 (from UniProt P13976 24-133) (natural protein)
- stoichiometry N (Kid per Kis (2:1)) [2]: 2
- stoichiometry N (Kid per Kis (2:2)) [2]: 1
- stoichiometry N (Kid per Kis (4:2)) [2]: 2
- stoichiometry N (Kid per Kis (4:4)) [2]: 1
- stoichiometry N (Kid per Kis (4:6), on the 30-bp parD DNA) [2]: 0.67
- stoichiometry N (Kid per Kis (2:1)) [1]: 2
- stoichiometry N (Kid per Kis (4:2)) [1]: 2

B1: Kid toxin (Killing determinant) of the parD operon of plasmid R1 (natural protein)
chain: MERGEIWLVSLDPTAGHEQQGTRPVLIVTPAAFNRVTRLPVVVPVTSGGNFARTAGFAVSLDGVGIRTTGVVRCDQPRTIDMKARGGKRLERVPETIMNEVLGRLSTILT
- stoichiometry N (native MS): 2 subunits in the oligomer
